Results taken from patent publication US20250090699A1, “FAP TARGETING CYCLIC PEPTIDES AND CONJUGATES THEREOF” (Novartis AG, priority 2023, published 2025).
Starred links: 1 amine or outer side, 2 acyl side, 3 side chain; linkers in the order of their positions; H or OH if unused. Non-standard residues stand in square brackets, D forms with d. Primed or numbered codes have the meaning given here. *: point of attachment. F(4amPEG2NHDOTA-Lu) = lutetium complex of (S)-2,2',2''-(10-(1-(4-(2-amino-2-carboxyethyl)phenyl)-3,12-dioxo-5,8-dioxa-2,11-diazatridecan-13-yl)-1,4,7,10-tetraazacyclododecane-1,4,7-triyl)triacetic acid (Phe with 4-aminomethyl-PEG2-DOTA-Lu), O=C([O-])CN1CCN(CC(=O)[O-])CCN(CC(=O)NCCOCCOCC(=O)NCc2ccc(C[C@H](N[*:1])C(=O)[*:2])cc2)CCN(CC(=O)[O-])CC1.[Lu+3]; F(4amPEG2NHNODAGA-Ga) = gallium complex of 2,2'-(7-(1-(4-((S)-2-amino-2-carboxyethyl)phenyl)-15-carboxy-3,12-dioxo-5,8-dioxa-2,11-diazapentadecan-15-yl)-1,4,7-triazonane-1,4-diyl)diacetic acid (Phe with 4-aminomethyl-PEG2-NODAGA-Ga), O=C([O-])CN1CCN(CC(=O)[O-])CCN(C(CCC(=O)NCCOCCOCC(=O)NCc2ccc(C[C@H](N[*:1])C(=O)[*:2])cc2)C(=O)[O-])CC1.[Ga+3]; F(4OEtNHDOTA-Lu) = lutetium complex of (S)-2,2',2''-(10-(2-((2-(4-(2-amino-2-carboxyethyl)phenoxy)ethyl)amino)-2-oxoethyl)-1,4,7,10-tetraazacyclododecane-1,4,7-triyl)triacetic acid (Phe with 4-O-ethylamino-DOTA-Lu), O=C([O-])CN1CCN(CC(=O)[O-])CCN(CC(=O)NCCOc2ccc(C[C@H](N[*:1])C(=O)[*:2])cc2)CCN(CC(=O)[O-])CC1.[Lu+3]; F(4amPEG2NHDOTA-Lu)″ = lutetium (S)-2,2',2''-(10-(1-(4-(2-amino-2-carboxyethyl)phenyl)-3,12-dioxo-5,8-dioxa-2,11-diazatridecan-13-yl)-1,4,7,10-tetraazacyclododecane-1,4,7-triyl)triacetic acid, O=C([O-])CN1CCN(CC(=O)[O-])CCN(CC(=O)NCCOCCOCC(=O)NCc2ccc(C[C@H](N[*:1])C(=O)[*:2])cc2)CCN(CC(=O)[O-])CC1.[Lu+3]; COpipzaa″ = 4-(carboxymethyl)piperazine-1-carbonyl on Lys N6, O=C(O)CN1CCN(C(=O)*)CC1; COpipzaa = 4-(carboxymethyl)piperazine-1-carbonyl, O=C(O)CN1CCN(C(=O)*)CC1; F(4amPEG2NHRDOTAGA-Ga) = Phe with 4-aminomethyl-PEG2-NH-DOTAGA, Ga complex; F(4amPEG2NHRDOTAGA-Lu) = Phe with 4-aminomethyl-PEG2-NH-DOTAGA, Lu complex; F(4amPEG2NHDOTA-Ga)″ = Phe with 4-aminomethyl-PEG2-NH-DOTA, Ga complex; X4 = 4‑(carboxymethyl)piperazine‑1‑carbonyl, O=C(O)CN1CCN(C(=O)*)CC1; hS(Pr) = O-propyl-L-homoserine, CCCOCC[C@H](N[*:1])C(=O)[*:2]; NMeF = CN[C@@H](Cc1ccccc1)C(=O)O; Ahp(2) = CCCCC[C@H](N)C(=O)O

What was measured:
[1] = molecular target: T1, mouse FAP (Mus musculus, UniProt P97321); assay: Surface plasmon resonance (SPR) for peptide affinity, mouse FAP; assay type: binding
T1 construct: biotinylated His, Avi tag, mouse FAP (26-761, FAP-M82Q5); His; Avi tag (biotinylated); purchased AcroBiosystems FAP-M82Q5
T1 sequence (P97321 26-761): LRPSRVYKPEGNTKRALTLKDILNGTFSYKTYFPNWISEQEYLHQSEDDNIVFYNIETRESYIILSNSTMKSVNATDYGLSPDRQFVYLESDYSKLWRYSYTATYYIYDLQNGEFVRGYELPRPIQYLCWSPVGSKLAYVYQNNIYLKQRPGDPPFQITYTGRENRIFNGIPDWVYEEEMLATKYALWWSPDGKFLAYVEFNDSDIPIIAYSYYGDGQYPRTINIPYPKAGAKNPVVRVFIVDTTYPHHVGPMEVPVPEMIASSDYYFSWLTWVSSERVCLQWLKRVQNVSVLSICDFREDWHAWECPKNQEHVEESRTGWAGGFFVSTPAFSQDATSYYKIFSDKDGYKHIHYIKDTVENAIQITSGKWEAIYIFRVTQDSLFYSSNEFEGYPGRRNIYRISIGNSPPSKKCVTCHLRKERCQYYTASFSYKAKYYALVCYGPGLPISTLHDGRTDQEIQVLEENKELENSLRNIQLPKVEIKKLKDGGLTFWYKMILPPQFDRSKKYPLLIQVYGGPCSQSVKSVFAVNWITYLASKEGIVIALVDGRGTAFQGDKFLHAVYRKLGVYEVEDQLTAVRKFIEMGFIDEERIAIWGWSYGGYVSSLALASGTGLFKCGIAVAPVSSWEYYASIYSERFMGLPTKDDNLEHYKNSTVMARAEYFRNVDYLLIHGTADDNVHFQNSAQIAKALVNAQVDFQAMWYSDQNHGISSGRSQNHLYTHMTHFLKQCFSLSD
Outline: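 KD values come from a 1:1 kinetic fit of single-cycle SPR data: 8 peptide concentrations, 25 °C, 30 μL/min, HEPES-buffered saline pH 7.6 with 2% DMSO. Targets were His/Avi-tagged human (26-760) or mouse (26-761) FAP, amine-coupled to CM5 or held on a CAPture chip.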

[2] = molecular target: T1, mouse FAP; assay: Enzymatic FAP competition assay (Z-Gly-Pro-AMC fluorescence), mouse FAP; assay type: biochemical; details: read-out: m. FAP, Enz., IC50
Outline: (§1)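 IC50 values come from curve fitting of duplicate % inhibition data on AMC fluorescence (ex 380, em 460 nm) after 4 h at 22-24° C with 50 μM Z-Gly-Pro-AMC. Beforehand, peptides up to 1 μM (14 levels) sat 24 h with 0.01 nM human (26-760) or mouse (26-761) tagged FAP in phosphate buffer pH 7.5, NaCl, Tween20, 1% DMSO.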

[3] = molecular target: T2, human FAP (Homo sapiens, UniProt Q12884); assay: Enzymatic FAP competition assay (Z-Gly-Pro-AMC fluorescence), human FAP; assay type: biochemical; details: read-out: h. FAP, Enz., IC50
T2 construct: the biotinylated His, Avi tag, human FAP (26-760, FAP-H82Q6); His; Avi tag (biotinylated); purchased AcroBiosystems FAP-H82Q6
T2 sequence (Q12884 26-760): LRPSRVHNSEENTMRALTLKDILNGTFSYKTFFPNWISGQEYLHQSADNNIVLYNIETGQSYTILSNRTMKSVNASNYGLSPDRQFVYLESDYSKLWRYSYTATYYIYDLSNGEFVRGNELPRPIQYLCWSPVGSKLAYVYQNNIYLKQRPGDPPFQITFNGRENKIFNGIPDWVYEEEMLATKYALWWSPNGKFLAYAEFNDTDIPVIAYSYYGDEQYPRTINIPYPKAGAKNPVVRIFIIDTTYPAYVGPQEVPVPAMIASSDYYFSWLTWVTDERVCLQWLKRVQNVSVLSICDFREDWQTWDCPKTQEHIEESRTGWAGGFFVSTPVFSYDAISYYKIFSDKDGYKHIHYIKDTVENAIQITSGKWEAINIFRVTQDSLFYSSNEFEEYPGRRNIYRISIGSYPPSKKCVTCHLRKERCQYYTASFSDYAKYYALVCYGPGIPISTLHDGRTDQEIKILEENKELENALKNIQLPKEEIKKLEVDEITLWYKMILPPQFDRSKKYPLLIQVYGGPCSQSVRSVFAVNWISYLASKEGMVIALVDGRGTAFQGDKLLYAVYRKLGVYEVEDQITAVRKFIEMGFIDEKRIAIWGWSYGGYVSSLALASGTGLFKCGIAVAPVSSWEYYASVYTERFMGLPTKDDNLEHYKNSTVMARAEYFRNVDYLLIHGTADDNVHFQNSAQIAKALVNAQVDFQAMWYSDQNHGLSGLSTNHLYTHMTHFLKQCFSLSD
Outline: as §1

Row | Kd [1] | IC50 [2] | IC50 [3] | Substance
1 | < 0.02 nM | 0.019 nM | 0.006 nM | Gly-Gly-NMePhe-F(4amPEG2NHNODAGA-Ga)-hS(Pr)-Trp-Gly-K(COpipzaa)-Asp-D-Pro (cyclo(GG[NMeF][F(4amPEG2NHNODAGA-Ga)][hS(Pr)]WGK(COpipzaa)D[dP]); also: Ga complex) [Example C40]
2 | < 0.024 nM | 0.051 nM | 0.015 nM | Gly-Gly-NMePhe-F(4amPEG2NHRDOTAGA-Ga)-hS(Pr)-Trp-Gly-K(COpipzaa)-AsI-D-Pro (cyclo(GG[NMeF][F(4amPEG2NHRDOTAGA-Ga)][hS(Pr)]WGK(COpipzaa)D[dP]); also: Ga complex) [Example C39]
3 | < 0.02 nM | 0.026 nM | 0.012 nM | Gly-Gly-NMePhe-F(4amPEG2NHRDOTAGA-Lu)-hS(Pr)-Trp-Gly-K(COpipzaa)-Asp-D-Pro (cyclo(GG[NMeF][F(4amPEG2NHRDOTAGA-Lu)][hS(Pr)]WGK(COpipzaa)D[dP]); also: Lu complex) [Example C33]
4 | < 0.031 nM | 0.03 nM | 0.016 nM | Pro-Gly-NMePhe-F(4amPEG2NHDOTA-Lu)-hS(Pr)-Trp-Gly-K(COpipzaa)-Asp-D-Pro (cyclo(PG[NMeF][F(4amPEG2NHDOTA-Lu)″][hS(Pr)]WGK(X4)D[dP])) [Example C20]

More lines, now with the values behind:

Row | Substance | Kd [1] | IC50 [2] | IC50 [3]
5 | Gly-Gly-NMePhe-F(4amPEG2NHDOTA-Lu)-Ahp-Trp-Gly-Tyr-Asp-D-Pro (cyclo(GG[NMeF][F(4amPEG2NHDOTA-Lu)][Ahp(2)]WGYD[dP]); also: Lu complex) [Example C15] | 0.013 nM | 0.009 nM | 0.003 nM
6 | Gly-Gly-NMePhe-F(4amPeG2NHDOTA-Ga)-Ahp-Trp-Gly-K(COpipzaa)-asp-D-Pro (cyclo(GG[NMeF][F(4amPEG2NHDOTA-Ga)″][Ahp(2)]WGK(COpipzaa)D[dP]); also: Ga in DOTA chelate) [Example C46] | < 0.016 nM | 0.032 nM | 0.012 nM
7 | K(COpipzaa)-Gly-NMePhe-F(4OEtNHDOTA-Lu)-Ahp-Trp-Gly-Tyr-Asp-D-Pro (cyclo(K(COpipzaa″)G[NMeF][F(4OEtNHDOTA-Lu)][Ahp(2)]WGYD[dP]); also: Lu complex) [Example C25] | 0.34 nM | 0.35 nM | 0.098 nM
8 | hSer-Gly-NMe3PyA-F(4amPEG2NHDOTA-Lu)-hS(Pr)-W7N-Gly-K(COpipzaa)-Asp-D-Pro [Example C6] | < 0.035 nM | 0.049 nM | 0.024 nM
9 | hSer-Gly-NMePhe-F(4amPEG2NHDOTA-Lu)-hS(Pr)-Trp-Gly-K(COpipzaa)-Asp-D-Pro [Example C4] | < 0.039 nM | 0.032 nM | 0.011 nM
